Assay results published in publication PMC6959358.

Assays:
Experiment in all cases: co-immunoprecipitation (DYK-antibody beads) with immunoblot quantification
PKA = details: TnT-DYK expressed in HEK cells, immobilized on DYK-antibody beads, incubated with healthy control iPSC-CM lysate; n = 4; DYK negative control subtracted …; parent: est. 1.0; read off a plot
troponin C = troponin C (UniProt P63316); details: TnT-DYK expressed in HEK cells, immobilized on DYK-antibody beads, incubated with healthy control iPSC-CM lysate; n = 6; DYK negative control subtracted …; parent: est. 1.0; read off a plot
troponin I = troponin I (UniProt P19429); details: TnT-DYK expressed in HEK cells, immobilized on DYK-antibody beads, incubated with healthy control iPSC-CM lysate; n = 5; DYK negative control subtracted …; parent: est. 1.0; read off a plot
tropomyosin = tropomyosin (UniProt P09493); details: TnT-DYK expressed in HEK cells, immobilized on DYK-antibody beads, incubated with healthy control iPSC-CM lysate; n = 5; DYK negative control subtracted …; parent: est. 1.0; read off a plot
Chain of UniProt P09493 (P09493 whole entry): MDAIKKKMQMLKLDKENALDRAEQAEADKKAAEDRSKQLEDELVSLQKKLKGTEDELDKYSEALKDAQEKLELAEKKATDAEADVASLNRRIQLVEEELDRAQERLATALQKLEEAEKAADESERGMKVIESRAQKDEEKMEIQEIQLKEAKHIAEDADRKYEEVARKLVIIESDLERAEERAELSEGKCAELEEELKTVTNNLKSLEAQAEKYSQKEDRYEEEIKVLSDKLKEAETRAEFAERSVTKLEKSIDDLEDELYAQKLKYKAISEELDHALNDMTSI

Chain of UniProt P19429 (P19429 whole entry): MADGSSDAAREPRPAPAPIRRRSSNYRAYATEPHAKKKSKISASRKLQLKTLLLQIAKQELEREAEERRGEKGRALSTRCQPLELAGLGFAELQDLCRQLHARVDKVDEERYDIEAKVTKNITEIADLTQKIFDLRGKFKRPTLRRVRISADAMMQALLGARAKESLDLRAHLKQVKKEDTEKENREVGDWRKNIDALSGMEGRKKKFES

Which ratio to parent (PKA) does the source give for “TnT-WT-DYK (human cardiac troponin T, wild type, flag (DYK)-tagged) R173W” here?
The ratio to parent was 0.42.

And the ratio to parent (troponin C)?
Its ratio to parent is 0.78.

And the ratio to parent (troponin I)?
The ratio to parent was 0.73.

And the ratio to parent (tropomyosin)?
The ratio to parent was 0.57.
